Laboratory results: patent publication US20120283168A1
Square brackets hold non-standard residues; d marks the D form. Oic = O=C(O)[C@@H]1C[C@@H]2CCCC[C@@H]2N1; Tic = O=C(O)[C@@H]1Cc2ccccc2CN1; Dab = NCC[C@H](N)C(=O)O; Ac4c = NC1(C(=O)O)CCC1; Deg = CCC(N)(CC)C(=O)O; Aib = CC(C)(N)C(=O)O

What follows are substances tested against human CCR10 (human) (UniProt P46092) (assay: cell-based or functional assay).
Chain of human CCR10 (human) (P46092 whole entry): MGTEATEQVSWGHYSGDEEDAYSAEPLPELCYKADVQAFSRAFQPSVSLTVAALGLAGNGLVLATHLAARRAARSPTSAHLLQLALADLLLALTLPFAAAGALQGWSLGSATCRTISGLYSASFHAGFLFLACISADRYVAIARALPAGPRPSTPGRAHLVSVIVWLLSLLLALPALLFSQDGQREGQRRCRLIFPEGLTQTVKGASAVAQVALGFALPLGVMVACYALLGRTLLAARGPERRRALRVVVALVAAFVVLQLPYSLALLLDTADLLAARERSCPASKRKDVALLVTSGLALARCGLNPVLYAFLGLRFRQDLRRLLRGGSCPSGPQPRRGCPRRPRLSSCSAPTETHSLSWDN

Row | Substance | IC50 (nM) Calcium Flux Assay | IC50 (nM) Chemotaxis Assay
1 | cyclo(-Trp-Cyp-Trp-Gln-^DPro-Oic-) (peptide) | 44.3 nM | –
2 | cyclo(-Trp-Cyp-Trp-Lys(4Oxa)-^DPro-Oic-) (peptide) | 107 nM | 5.9 nM
3 | cyclo(-Trp-Cyp-Trp-Lys((5R)OH)-^DPro-Oic-) (peptide) | 333 nM | 7 nM
4 | cyclo(-Trp-Cyp-Trp-Lys(Bz)-^DPro-Oic-) (peptide) | 3 nM | 2.7 nM
5 | cyclo(-Trp-Cyp-Trp-Lys(Me)-^DPro-Oic-) (peptide) | – | 4.4 nM
6 | cyclo(-Trp-Cyp-Trp-Ser-^DPro-Hyp(Bn)-) (peptide) | 12.6 nM | 35.4 nM
7 | cyclo(-Trp-Cyp-Trp-Ser-^DPro-Oic-) (peptide) | 61.6 nM | 1.4 nM
8 | cyclo(-Trp-Cyp-Trp-Thr-^DPro-Oic-) (peptide) | 20.4 nM | 5.4 nM
9 | cyclo(-Trp-Cyp-Trp-alloThr-^DPro-Oic-) (peptide) | 11.6 nM | 1.2 nM
10 | cyclo(-Trp-Cyp-Trp-hArg-^DPro-Oic-) (peptide) | 25 nM | 3.7 nM
11 | cyclo(-Trp-Cyp-Trp-hCys-^DPro-Oic-) (peptide) | 54.9 nM | 8.7 nM
12 | cyclo(-Trp-Cyp-Trp-hSer(Me)-^DPro-Oic-) (peptide) | 12 nM | 1.8 nM
13 | cyclo(-Trp-Cyp-Tyr(Ph)-Dab-^DPro-Oic-) (peptide) | 602 nM | 208 nM
14 | cyclo(-Tyr(4MeOCOBn)-Cyp-Trp-Dab-^DPro-Oic-) (peptide) | 16.7 nM | 2.3 nM
15 | cyclo(-Tyr(40HPh)-Cyp-Trp-Dab-^DPro-Oic-) (peptide) | 48.9 nM | 6.6 nM
16 | cyclo(W[Ac4c]W[Dab][dP][Oic]) | 353 nM | 1.7 nM
17 | cyclo(W[Aib]W[Dab][dP][Tic]) | 200 nM | 21.6 nM
18 | cyclo(W[Deg]W[Dab][dP][Oic]) | 146 nM | 76.1 nM

The next lines start with the values.

Row | IC50 (nM) Calcium Flux Assay | IC50 (nM) Chemotaxis Assay | Substance
19 | 25.1 nM | 1 nM | cyclo(-Trp-Cyp-Trp-Gln(iPr)-^DPro-Oic-) (peptide)
20 | 28 nM | 2.3 nM | cyclo(-Trp-Cyp-Trp-Lys(Ac)-^DPro-Oic-) (peptide)
21 | 49.5 nM | 8.8 nM | cyclo(-Trp-Cyp-Trp-Lys(Nic)-^DPro-Oic-) (peptide)
22 | 4.8 nM | 1.2 nM | cyclo(-Trp-Cyp-Trp-Met(O2)-^DPro-Oic-) (peptide)
23 | 46.4 nM | 10.1 nM | cyclo(-Trp-Cyp-Trp-Ser(Me)-^DPro-Oic-) (peptide)
24 | 6.9 nM | 9.6 nM | cyclo(-Trp-Cyp-Trp-Ser-^DPip-Oic-) (peptide)
25 | 214 nM | 3.8 nM | cyclo(-Trp-Cyp-Tyr(Me)-Dab-^DPro-Oic-) (peptide)
26 | 608 nM | – | cyclo(-Trp-^DLAtc-Trp-Dab-^DPro-Oic-) (peptide)
27 | 1.1 nM | 1.7 nM | cyclo(-Tyr(Ph)-Cyp-Trp-Dab-^DPro-Oic-) (peptide)
28 | 516 nM | 13 nM | cyclo(-hTyr-Cyp-Trp-Dab-^DPro-Oic-) (peptide)
29 | 226 nM | 94 nM | cyclo(W[Aib]WR[dP][Tic])
